Measured values from patent publication US20170015742A1 (published 2017).

What was measured:
[1] = target: T1, VEGF-A (human, UniProt P15692 207-395); assay: Biacore SPR; DVD-Ig captured on anti-human Fc, antigen injected
T1 construct: also called hVEGF165
Method: (§1) For example, approximately 9000 RU of goat anti-human Fc specific polyclonal antibody (Thermo Fisher Scientific Inc., Rockford, Ill.) diluted in 10 mM sodium acetate (pH 4.5) is directly immobilized across a CM5 research grade biosensor chip using a standard amine coupling kit according to manufacturer's instructions and procedures at 25 μg/ml. Unreacted moieties on the biosensor surface were blocked with ethanolamine. For kinetic analysis, rate equations derived from the 1:1 Langmuir binding model were fitted simultaneously to multiple antigen injections (using global fit analysis) with the use of Scrubber 2 (BioLogic Software), Biacore Biaevaluation 4.0.1 software or Biacore T100 Evaluation software. Purified antibodies or DVD-Ig molecules were diluted in running buffer for capture across goat anti-human Fc reaction surfaces. Antibodies or DVD-Ig molecules to be captured as a ligand (1 μg/ml) were injected over reaction matrices at a flow rate of 10 μl/minute. During the assay, all measurements were referenced against the capture surface alone (i.e., with no captured antibody or DVD-Ig molecule). […] The equilibrium dissociation constant KD (M) of the reaction between antibodies and the target antigen was then calculated from the kinetic rate constants by the following formula: KD=Koff/Kₒₙ. Binding was recorded as a function of time and kinetic rate constants were calculated.

[2] = target: T2, PDGF-BB (human, UniProt P01127 82-190, limits assumed); assay: as above
T2 construct: also called human PDGF-BB; hPDGF-BB
Method: as §1

T2 sequence (P01127 82-190 limits assumed): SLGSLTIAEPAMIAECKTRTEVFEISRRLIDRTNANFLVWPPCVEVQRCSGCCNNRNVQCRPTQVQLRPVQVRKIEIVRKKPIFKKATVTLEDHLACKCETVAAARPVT
T1 sequence (P15692 other isoform, or with tags, fused parts or gaps limits assumed): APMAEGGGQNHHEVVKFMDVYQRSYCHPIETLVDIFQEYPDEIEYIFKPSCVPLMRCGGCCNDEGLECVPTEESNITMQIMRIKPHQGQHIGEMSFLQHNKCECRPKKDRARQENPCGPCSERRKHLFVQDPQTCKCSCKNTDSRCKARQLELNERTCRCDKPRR

| Binder | Kd [1] [pM] | kon [1] [M⁻¹ s⁻¹] | Kd [2] [pM] | kon [2] [M⁻¹ s⁻¹] |
| --- | --- | --- | --- | --- |
| CL-34565_GS_3E2.1 (PR-1613185) (bispecific antibody, human IgG1, kappa, L234A L235A, DVD-Ig: outer CL-34565 (VEGF), inner hBFU-3E2.1 (PDGF), linkers GS-H10/GS-L10(dR); Human IgG1 L234A, L235A, H435A with kappa) heavy: EVQLVQSGSELKKPGASVKVSCKASGYTFTDYGMYWVRQAPGQGLEWMGWIDTETGDPTYADDFKGRFVFSLDTSVSTAYLQISSLKAEDTAVYYCARTNYYYRNYMFYFDYWGQGTMVTVSSGGGGSGGGGSEVQLVQSGAEVKKPGSSVKVSCKASGYTFTESYMYWVKQAPGQGLELIGRIDPEDGSTDYVEKFKNKATLTADKSTSTAYMELSSLRSEDTAVYFCARFGARSYFYPMDAWGQGTTVTVSSASTKGPSVFPLAPSSKSTSGGTAALGCLVKDYFPEPVTVSWNSGALTSGVHTFPAVLQSSGLYSLSSVVTVPSSSLGTQTYICNVNHKPSNTKVDKKVEPKSCDKTHTCPPCPAPEAAGGPSVFLFPPKPKDTLMISRTPEVTCVVVDVSHEDPEVKFNWYVDGVEVHNAKTKPREEQYNSTYRVVSVLTVLHQDWLNGKEYKCKVSNKALPAPIEKTISKAKGQPREPQVYTLPPSREEMTKNQVSLTCLVKGFYPSDIAVEWESNGQPENNYKTTPPVLDSDGSFFLYSKLTVDKSRWQQGNVFSCSVMHEALHNAYTQKSLSLSPGK light: EIVLTQSPATLSLSPGERATLFCRASQSVSNHMHWYQQKPGQAPRLLIYGASILESGVPARFSGSGSGTDFTLTISSLEPEDFAVYYCQQSWYDPITFGQGTKLEIKGGSGGGGSGGETVLTQSPATLSLSPGERATLSCRASESVSTLMHWYQQKPGQQPRLLIYGASNLESGVPARFSGSGSGTDFTLTISSLEPEDFAVYFCQQSWNDPWTFGGGTKVEIKRTVAAPSVFIFPPSDEQLKSGTASVVCLLNNFYPREAKVQWKVDNALQSGNSQESVTEQDSKDSTYSLSSTLTLSKADYEKHKVYACEVTHQGLSSPVTKSFNRGEC | 1.4 | 1.2e+07 | 12 | 4.5e+07 |
| CL-34565_GS_CL-33675 (PR-1613183) (bispecific antibody, human IgG1, kappa, L234A L235A, DVD-Ig: outer CL-34565 (VEGF), inner CL-33675 (PDGF), linkers GS-H10/GS-L10(dR); Human IgG1 L234A, L235A, H435A with kappa) heavy: EVQLVQSGSELKKPGASVKVSCKASGYTFTDYGMYWVRQAPGQGLEWMGWIDTETGDPTYADDFKGRFVFSLDTSVSTAYLQISSLKAEDTAVYYCARTNYYYRNYMFYFDYWGQGTMVTVSSGGGGSGGGGSEVTLRESGPALVKPTQTLTLTCTFSGFSLSTYGMGVGWIRQPPGKALEWLANIWWDDDKYYNPSLKNRLTISKDTSKNQVVLTMTNMDPVDTATYYCARIESSGPKYSFDYWGQGTMVTVSSASTKGPSVFPLAPSSKSTSGGTAALGCLVKDYFPEPVTVSWNSGALTSGVHTFPAVLQSSGLYSLSSVVTVPSSSLGTQTYICNVNHKPSNTKVDKKVEPKSCDKTHTCPPCPAPEAAGGPSVFLFPPKPKDTLMISRTPEVTCVVVDVSHEDPEVKFNWYVDGVEVHNAKTKPREEQYNSTYRVVSVLTVLHQDWLNGKEYKCKVSNKALPAPIEKTISKAKGQPREPQVYTLPPSREEMTKNQVSLTCLVKGFYPSDIAVEWESNGQPENNYKTTPPVLDSDGSFFLYSKLTVDKSRWQQGNVFSCSVMHEALHNAYTQKSLSLSPGK light: EIVLTQSPATLSLSPGERATLFCRASQSVSNHMHWYQQKPGQAPRLLIYGASILESGVPARFSGSGSGTDFTLTISSLEPEDFAVYYCQQSWYDPITFGQGTKLEIKGGSGGGGSGGEIVLTQSPGTLSLSPGERATLSCRASSGSIWYSFVSWYQQKPGQAPRLLIYADDQRASGIPDRFSGSGSGTDFTLTISRLEPEDFAVYYCQSYGINIDVVFGGGTKVEIKRTVAAPSVFIFPPSDEQLKSGTASVVCLLNNFYPREAKVQWKVDNALQSGNSQESVTEQDSKDSTYSLSSTLTLSKADYEKHKVYACEVTHQGLSSPVTKSFNRGEC | 1.7 | 1.2e+07 | 0.19 | 6e+07 |
| CL-34565_GS_9E8.4 (PR-1613184) (bispecific antibody, human IgG1, kappa, L234A L235A, DVD-Ig: outer CL-34565 (VEGF), inner hBDI-9E8.4 (PDGF), linkers GS-H10/GS-L10(dR); Human IgG1 L234A, L235A, H435A with kappa) heavy: EVQLVQSGSELKKPGASVKVSCKASGYTFTDYGMYWVRQAPGQGLEWMGWIDTETGDPTYADDFKGRFVFSLDTSVSTAYLQISSLKAEDTAVYYCARTNYYYRNYMFYFDYWGQGTMVTVSSGGGGSGGGGSEVTLRESGPALVKPTQTLTLTCTFSGFSLSTYGMGVGWIRQPPGKALEWLANIWWDDDKYYNPSLKNRLTISKDTSKNQVVLTMTNMDPVDTATYYCARIESIGTTYSFDYWGQGTMVTVSSASTKGPSVFPLAPSSKSTSGGTAALGCLVKDYFPEPVTVSWNSGALTSGVHTFPAVLQSSGLYSLSSVVTVPSSSLGTQTYICNVNHKPSNTKVDKKVEPKSCDKTHTCPPCPAPEAAGGPSVFLFPPKPKDTLMISRTPEVTCVVVDVSHEDPEVKFNWYVDGVEVHNAKTKPREEQYNSTYRVVSVLTVLHQDWLNGKEYKCKVSNKALPAPIEKTISKAKGQPREPQVYTLPPSREEMTKNQVSLTCLVKGFYPSDIAVEWESNGQPENNYKTTPPVLDSDGSFFLYSKLTVDKSRWQQGNVFSCSVMHEALHNAYTQKSLSLSPGK light: EIVLTQSPATLSLSPGERATLFCRASQSVSNHMHWYQQKPGQAPRLLIYGASILESGVPARFSGSGSGTDFTLTISSLEPEDFAVYYCQQSWYDPITFGQGTKLEIKGGSGGGGSGGEFVLTQSPGTLSLSPGERATLSCERSSGDIGDSYVSWYQQKPGQAPRLVIYADDQRPSGIPDRFSGSGSGTDFTLTISRLEPEDFAVYYCQSYDINIDIVFGGGTKVEIKRTVAAPSVFIFPPSDEQLKSGTASVVCLLNNFYPREAKVQWKVDNALQSGNSQESVTEQDSKDSTYSLSSTLTLSKADYEKHKVYACEVTHQGLSSPVTKSFNRGEC | 1.1 | 1.5e+07 | 5.4 | 3.5e+07 |
| 4G8.5_GS_CL-33675 (PR-1611291) (bispecific antibody, human IgG1, kappa, L234A L235A, DVD-Ig: outer hBDB-4G8.5 (VEGF), inner CL-33675 (PDGF), linkers GS-H10/GS-L10(dR); Human IgG1 L234A, L235A, H435A with kappa) heavy: EIQLVQSGSELKKPGASVKVSCKASGYTFTNYGMYWVRQAPGQGLEYMGWINTETGKPTYADDFKGRFVFSLDTSVSTAYLQISSLKAEDTAVYFCARTNYYYRSYIFYFDYWGQGTMVTVSSGGGGSGGGGSEVTLRESGPALVKPTQTLTLTCTFSGFSLSTYGMGVGWIRQPPGKALEWLANIWWDDDKYYNPSLKNRLTISKDTSKNQVVLTMTNMDPVDTATYYCARIESSGPKYSFDYWGQGTMVTVSSASTKGPSVFPLAPSSKSTSGGTAALGCLVKDYFPEPVTVSWNSGALTSGVHTFPAVLQSSGLYSLSSVVTVPSSSLGTQTYICNVNHKPSNTKVDKKVEPKSCDKTHTCPPCPAPEAAGGPSVFLFPPKPKDTLMISRTPEVTCVVVDVSHEDPEVKFNWYVDGVEVHNAKTKPREEQYNSTYRVVSVLTVLHQDWLNGKEYKCKVSNKALPAPIEKTISKAKGQPREPQVYTLPPSREEMTKNQVSLTCLVKGFYPSDIAVEWESNGQPENNYKTTPPVLDSDGSFFLYSKLTVDKSRWQQGNVFSCSVMHEALHNAYTQKSLSLSPGK light: ATQLTQSPSLSASVGDRVTITCRASESVSTHMHWYQQKPGKQPKLLIYGASNLESGVPSRFSGSGSGTDFTLTISSLQPEDFATYFCQQSWNDPFTFGQGTKLEIKGGSGGGGSGGEIVLTQSPGTLSLSPGERATLSCRASSGSIWYSFVSWYQQKPGQAPRLLIYADDQRASGIPDRFSGSGSGTDFTLTISRLEPEDFAVYYCQSYGINIDVVFGGGTKVEIKRTVAAPSVFIFPPSDEQLKSGTASVVCLLNNFYPREAKVQWKVDNALQSGNSQESVTEQDSKDSTYSLSSTLTLSKADYEKHKVYACEVTHQGLSSPVTKSFNRGEC | 6.6 | 4.7e+06 | 0.74 | 1.6e+07 |
